{"source": "patent US20260263521A1", "about": "(AIMED BIO, published 2026)", "binders": {"B1": {"name": "P001009v1 (antibody, V domains shown)", "VH": "EVQLLESGGGLVQPGGSLRLSCAASGFTFSSYDMSWVRQAPGKGLEWVSWISHGGGSIYYADSVKGRFTISRDNSKNTLYLQMNSLRAEDTAVYYCARDAPAYSAPLFDYWGQGTLVTVSS", "VL": "QSVLTQPPSASGTPGQRVTISCSGSSSNIGNNAVNWYQQLPGTAPKLLIYYDKNRPSGVPDRFSGSKSGTSASLAISGLRSEDEADYYCAAWDDRLSGYVFGGGTKLTVL", "notes": "P001009 with LC S52K and S94R (Kabat); also called P019001v1; P0001009v1"}, "B2": {"name": "6A10 (hybridoma clone) (antibody, V domains shown)", "VH": "QLQQSGAELVRSGASVKLSCTASGFNIKDYYLHWIKQRPEQGLEWIGWIDPENGDTEYAPKFQGKATMTADTSSNTAYLQLISLTSEDAAVYYCFAGGSYWGQGTSVTVSS", "VL": "DIVMTQSPSSLSVSAGEKVTMSCKSSQSLLNSGNQKNYLAWYQQKPGQPPKLLIYGASTRESGVPDRFTGSGSGTDFTLTISSVQAEDLAVYYCQNDHSYPYTFGGGTKLEIK"}, "B3": {"name": "1H10 (hybridoma clone) (antibody, V domains shown)", "VH": "QVQLQQPGAELVKPGTSVKLSCKASGYNFTSYWINWVKLRPGQGLEWIGDINPGSGSTNYNEKFRSKATLTVGTSSSTAYMQLSSLASEDSALYYCAREDYYGSRFFYWGQGTLVTVSA", "VL": "DVVMTQTPLSLPVSLGDQASISCRSSQSLVHSNGNTYLHWYLQKPGQSPKLLIYKVSNRFSGVPDRFSGSGSGTDFTLKISRVEAEDLGVYFCSQSTHVTFGAGTKLELK"}, "B4": {"name": "P001001 (IgG) (antibody, V domains shown)", "VH": "EVQLLESGGGLVQPGGSLRLSCAASGFTFSSYDMHWVRQAPGKGLEWVSRISFTGSTSYNPSLKSRFTISRDNSKNTLYLQMNSLRAEDTAVYYCARDTWWEGYFDLWGQGTLVTVSS", "VL": "QSVLTQPPSASGTPGQRVTISCSGSSSNIGNNHVSWYQQLPGTAPKLLIYDDTDRLTSVPNRFSGSKSGTSASLAISGLRSEDEADYYCGTWDSSLSAYVFGGGTKLTVL"}, "B5": {"name": "P001016 (IgG) (antibody, V domains shown)", "VH": "EVQLLESGGGLVQPGGSLRLSCAASGFTFSGYDMSWVRQAPGKGLEWVSGISYDGGSKYYADSVKGRFTISRDNSKNTLYLQMNSLRAEDTAVYYCAKDGYPLGAYYFDYWGQGTLVTVSS", "VL": "QSVLTQPPSASGTPGQRVTISCSVSSSNIGSNYVSWYRQLPGTAPKLLIYDDSKRPSGVPDRFSGSKSGTSASLAISGLRSEDEADYYCGTWDASLNGYVFGGGTKLTVL"}}, "key": {"[1]": {"target": "T1, human CD200R1 expressed on cells (Jurkat-CD200R1, U937-CD200R1, HH cells) (human, UniProt Q8TD46 25-348)", "T1 sequence (looked up)": "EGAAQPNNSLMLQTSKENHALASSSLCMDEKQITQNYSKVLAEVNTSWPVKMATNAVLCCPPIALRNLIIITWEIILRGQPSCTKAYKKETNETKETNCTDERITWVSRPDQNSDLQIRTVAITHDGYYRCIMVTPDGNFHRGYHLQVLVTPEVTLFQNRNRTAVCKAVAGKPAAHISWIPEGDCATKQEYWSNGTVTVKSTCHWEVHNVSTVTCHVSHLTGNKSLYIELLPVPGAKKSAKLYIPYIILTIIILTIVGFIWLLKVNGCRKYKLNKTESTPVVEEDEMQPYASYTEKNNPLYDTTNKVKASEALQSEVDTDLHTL", "assay": "cell-based or functional assay"}, "[2]": {"target": "T1, human CD200R1 expressed on cells …", "assay": "flow cytometry, U937-CD200R cells", "protocol": "(§1) Two additional wells were treated with 10 μl of mouse IgG1K (BD, #555751) and 5 μl of commercial CD200R1 antibody (Biolegend, #329308) to determine CD200R1 expression on the cell line surface for cell quality control.\n(§2) The antibodies were serially diluted 10-fold from a maximum concentration of 100 nM to 10 nM, 1 nM, […], and were added to the pre-seeded cells. After reaction for 1 hour at 4° C., the cells were treated with Alexa-647 goat anti-human IgG (H+L) cross-adsorbed secondary antibody (Invitrogen, #A21445) and incubated for an additional 30 minutes at 4° C. After washing twice with FACS buffer, flow cytometry was performed using a Novocyte Flow cytometer (Agilent). Using GraphPad Prism software, the EC₅₀ was determined using a nonlinear graph model of log (agonist) vs. response-variable slope, as shown in Table 32."}, "[3]": {"target": "T2, cynomolgus CD200R1 with dual His-tags (cynomolgus, UniProt G7NZT0 25-266)", "T2 construct": "Captured on the SPR chip by an anti-histidine antibody; also called CCD200R1-his; cCD200R1-his; not shown: dual His-tags", "T2 sequence": "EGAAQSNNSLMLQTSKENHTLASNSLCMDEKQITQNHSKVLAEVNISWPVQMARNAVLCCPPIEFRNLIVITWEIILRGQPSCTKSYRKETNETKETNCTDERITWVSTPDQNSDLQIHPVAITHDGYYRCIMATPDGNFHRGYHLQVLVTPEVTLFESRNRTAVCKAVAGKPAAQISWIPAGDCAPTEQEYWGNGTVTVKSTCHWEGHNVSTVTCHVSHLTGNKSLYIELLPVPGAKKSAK", "assay": "SPR (Biacore CM5), His-tagged antigen captured by anti-histidine antibody, antibody as analyte, 1:1 Langmuir fit", "protocol": "(§3) For the experiment, 30 μg/mL of an anti-histidine antibody was conjugated to a CM5 biacore chip via an amine bond while allowing to flow at 10 μl/min (10,000 RU). Then, 0.25 μg/mL of human or cynomolgus CD200R1 with dual His-tags was captured onto the completed chip for 60 seconds, and the binding ability of each antibody was analyzed. All experiments were performed by association of antibodies for 120 seconds and dissociation of antibodies for 600 seconds. The resulting graphs were fitted using a 1:1 Langmuir binding kinetic model (FIG. 16), and the kinetics of each antibody were calculated."}, "[4]": {"target": "T3, human CD200R1 with dual His-tags (human, UniProt Q8TD46 25-265)", "T3 construct": "Captured on the SPR chip by an anti-histidine antibody; also called hCD200R1-his; not shown: dual His-tags", "T3 sequence (looked up)": "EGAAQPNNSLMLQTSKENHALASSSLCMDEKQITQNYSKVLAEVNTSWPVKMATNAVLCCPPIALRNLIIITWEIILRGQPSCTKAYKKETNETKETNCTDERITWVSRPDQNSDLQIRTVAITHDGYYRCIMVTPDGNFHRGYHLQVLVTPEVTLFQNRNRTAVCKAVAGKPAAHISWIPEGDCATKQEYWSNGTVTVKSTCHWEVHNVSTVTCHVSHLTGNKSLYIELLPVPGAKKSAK", "assay": "SPR (Biacore CM5), His-tagged antigen captured by anti-histidine antibody, antibody as analyte, 1:1 Langmuir fit", "protocol": "as §3"}, "[5]": {"target": "T4, human CD200R1 recombinant protein (construct not stated) (human, UniProt Q8TD46 27-266, limits assumed)", "T4 sequence (looked up)": "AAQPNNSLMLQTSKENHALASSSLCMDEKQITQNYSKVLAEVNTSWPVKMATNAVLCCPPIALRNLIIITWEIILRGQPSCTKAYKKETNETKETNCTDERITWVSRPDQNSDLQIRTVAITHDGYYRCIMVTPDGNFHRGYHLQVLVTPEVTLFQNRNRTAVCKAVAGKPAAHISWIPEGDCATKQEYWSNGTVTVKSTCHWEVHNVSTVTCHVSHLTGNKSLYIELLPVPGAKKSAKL", "assay": "ELISA on human CD200R1, normalized absorbance at 450 nm, 0.0192-300 nM; panel 'Human CD200R1'"}, "[6]": {"target": "T1, human CD200R1 expressed on cells …", "assay": "flow cytometry, Jurkat-CD200R cells", "protocol": "as §1, §2"}, "[7]": {"target": "T1, human CD200R1 expressed on cells …", "assay": "cell-based or functional assay", "remark": "listed apart in the source"}, "[8]": {"target": "T1, human CD200R1 expressed on cells …", "assay": "flow cytometry, HH cells", "protocol": "as §1, §2"}, "Hybrid CD200R1 MH [9]": {"target": "T5, Hybrid CD200R1 MH (mouse;human, UniProt Q9ES57;Q8TD46)", "T5 construct": "single domain; mouse D1 over human D2; also called MH hybrid domain; P001 MH domain", "T5 sequence (hybrid extracellular part, looked up)": "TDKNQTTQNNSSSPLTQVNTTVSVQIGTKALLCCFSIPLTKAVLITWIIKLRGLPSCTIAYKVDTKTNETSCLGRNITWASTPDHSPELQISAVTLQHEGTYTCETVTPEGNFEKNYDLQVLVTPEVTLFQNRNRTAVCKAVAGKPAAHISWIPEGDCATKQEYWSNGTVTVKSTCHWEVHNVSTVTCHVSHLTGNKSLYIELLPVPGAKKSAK", "assay": "ELISA, plate-bound MH hybrid (1 ug/mL), antibody 0.0192-300 nM, O.D 450 nm; panel 'P001 MH domain-4)'", "protocol": "(§4) Recombinant proteins were produced from the extracellular Ig-like V-type domain and Ig-like C2-type domain of human CD200R1, each designed as human-mouse (HM hybrid domain) and mouse-human (MH hybrid domain) recombinant proteins. A 96-well plate was coated at a concentration of 1 μg/mL with each protein at 4° C. for 16 hours and blocked with 3% skim milk. […] After color development with TMB substrate solution (Thermo Scientific, 34029, 1-Step™ Ultra TMB-ELISA Substrate Solution), the color reaction was stopped with a stop solution (Invitrogen, SS04, ELISA Stop Solution), and the absorbance was measured at an O.D. of 450 nm."}, "[10]": {"target": "T4, human CD200R1 recombinant protein …", "assay": "hybridoma ELISA on human CD200R1"}, "[11]": {"target": "T6, human CD200RLa (Sino Biological, 11620-H08H) recombinant protein (human, UniProt Q6Q8B3 24-239)", "T6 construct": "Bought; construct not described", "T6 sequence (looked up)": "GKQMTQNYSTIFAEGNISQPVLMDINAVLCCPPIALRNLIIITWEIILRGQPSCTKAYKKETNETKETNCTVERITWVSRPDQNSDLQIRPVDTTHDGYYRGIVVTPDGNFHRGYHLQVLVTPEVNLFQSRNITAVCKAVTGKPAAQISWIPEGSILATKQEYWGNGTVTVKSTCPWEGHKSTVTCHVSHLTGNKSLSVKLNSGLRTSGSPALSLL", "assay": "ELISA, plate-bound human CD200RLa (2 ug/mL), antibody 0.0192-300 nM, O.D 450 nm; panel 'recombinant human CD200RLa'", "method_in_brief": "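Plates coated overnight (16 h, 4° C) with human or cynomolgus CD200RLa recombinant protein, blocked with 3% skim milk; bound antibody detected by TMB colour development, reaction stopped before reading.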"}, "[12]": {"target": "T7, mouse CD200R1 protein (R&D systems, 2554-CD) (mouse, UniProt Q9ES57 26-238, limits assumed)", "T7 construct": "Bought; construct not described", "T7 sequence (looked up)": "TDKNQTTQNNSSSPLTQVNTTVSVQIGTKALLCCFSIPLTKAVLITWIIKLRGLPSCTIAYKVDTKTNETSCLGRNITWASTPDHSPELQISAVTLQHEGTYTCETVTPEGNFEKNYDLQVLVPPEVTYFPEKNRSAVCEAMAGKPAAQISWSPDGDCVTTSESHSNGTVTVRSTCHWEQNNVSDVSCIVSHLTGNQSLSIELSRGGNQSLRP", "assay": "ELISA on coated mouse CD200R1"}, "Hybrid CD200R1 MH [13]": {"target": "T5, Hybrid CD200R1 MH", "assay": "ELISA, plate-bound MH hybrid (1 ug/mL), antibody 0.0192-300 nM, O.D 450 nm; panel 'P001 MH domain-1)'", "protocol": "as §4"}}, "data": [{"binder": "B1", "values": [{"measurement": "IC50 (nM) of IL-6 inhibition, LPS-treated U937-CD200R1 cells", "setting": "[1]", "result": 0.1, "unit": "nM"}, {"measurement": "IC50 (nM) of TNF-α inhibition, LPS-treated U937-CD200R1 cells", "setting": "[1]", "result": 0.18, "unit": "nM"}, {"measurement": "EC50", "setting": "[2]", "result": 0.3, "unit": "nM"}, {"measurement": "Kd", "setting": "[3]", "result": 0.264, "unit": "nM"}, {"measurement": "koff", "setting": "[3]", "result": 0.00138, "unit": "s⁻¹"}, {"measurement": "kon", "setting": "[3]", "result": "5.23e+06", "unit": "M⁻¹ s⁻¹"}, {"measurement": "Kd", "setting": "[4]", "result": 0.021, "unit": "nM"}, {"measurement": "koff", "setting": "[4]", "result": 0.0001, "unit": "s⁻¹"}, {"measurement": "kon", "setting": "[4]", "result": "4.77e+06", "unit": "M⁻¹ s⁻¹"}, {"measurement": "EC50 (read off the curve)", "setting": "[5]", "result": "~3", "unit": "nM"}, {"measurement": "EC50", "setting": "[6]", "result": 0.17, "unit": "nM"}, {"measurement": "EC50 (nM), degree of signal transduction by the Dok2 protein", "setting": "[7]", "result": 1.28, "unit": "nM"}, {"measurement": "EC50", "setting": "[8]", "result": 0.16, "unit": "nM"}]}, {"binder": "B2", "values": [{"measurement": "binding result", "setting": "Hybrid CD200R1 MH [9]", "result": "no binding (tested: 300 nM)"}, {"measurement": "ELISA O.D.", "setting": "[10]", "result": "≥ 1.5", "unit": "O.D."}]}, {"binder": "B3", "values": [{"measurement": "binding result", "setting": "Hybrid CD200R1 MH [9]", "result": "no binding (tested: 300 nM)"}, {"measurement": "ELISA O.D.", "setting": "[10]", "result": "≥ 1.5", "unit": "O.D."}]}, {"binder": "B4", "values": [{"measurement": "binding result", "setting": "[11]", "result": "no binding (tested: 300 nM)"}, {"measurement": "binding result", "setting": "[12]", "result": "no binding (tested: 300 nM (highest concentration tested))"}, {"measurement": "binding result", "setting": "Hybrid CD200R1 MH [13]", "result": "no binding (tested: 300 nM)"}]}, {"binder": "B5", "values": [{"measurement": "binding result", "setting": "[12]", "result": "no binding (tested: 300 nM (highest concentration tested))"}]}]}
